Publication PMC5916898, “Global profiling of protein–DNA and protein–nucleosome binding affinities using quantitative mass spectrometry”

Tests used:
ZBTB7A = ZBTB7A (Homo sapiens, UniProt O95365); assay: pulldown; 150 mM NaCl, 50 mM Tris pH 8, 0.25% NP-40, 1 mM TCEP; 4 C, 2 h; 100 ug HeLa nuclear lysate; conditions: protein: extract; label: 5' biotin (strand 1)
ZBTB7B = ZBTB7B (Homo sapiens, UniProt O15156); assay: as above; conditions: protein: extract; label: 5' biotin (strand 1)
TGIF1 = TGIF1 (Homo sapiens, UniProt Q15583); assay: as above; conditions: protein: extract; label: 5' biotin (strand 1)
ELF2 = ELF2 (Homo sapiens, UniProt Q15723); assay: as above; conditions: protein: extract; label: 5' biotin (strand 1)
BBX = biological target: T1, BBX (Homo sapiens, UniProt Q8WY36); assay: as above; conditions: protein: extract; label: 5' biotin (strand 1)
T1 sequence: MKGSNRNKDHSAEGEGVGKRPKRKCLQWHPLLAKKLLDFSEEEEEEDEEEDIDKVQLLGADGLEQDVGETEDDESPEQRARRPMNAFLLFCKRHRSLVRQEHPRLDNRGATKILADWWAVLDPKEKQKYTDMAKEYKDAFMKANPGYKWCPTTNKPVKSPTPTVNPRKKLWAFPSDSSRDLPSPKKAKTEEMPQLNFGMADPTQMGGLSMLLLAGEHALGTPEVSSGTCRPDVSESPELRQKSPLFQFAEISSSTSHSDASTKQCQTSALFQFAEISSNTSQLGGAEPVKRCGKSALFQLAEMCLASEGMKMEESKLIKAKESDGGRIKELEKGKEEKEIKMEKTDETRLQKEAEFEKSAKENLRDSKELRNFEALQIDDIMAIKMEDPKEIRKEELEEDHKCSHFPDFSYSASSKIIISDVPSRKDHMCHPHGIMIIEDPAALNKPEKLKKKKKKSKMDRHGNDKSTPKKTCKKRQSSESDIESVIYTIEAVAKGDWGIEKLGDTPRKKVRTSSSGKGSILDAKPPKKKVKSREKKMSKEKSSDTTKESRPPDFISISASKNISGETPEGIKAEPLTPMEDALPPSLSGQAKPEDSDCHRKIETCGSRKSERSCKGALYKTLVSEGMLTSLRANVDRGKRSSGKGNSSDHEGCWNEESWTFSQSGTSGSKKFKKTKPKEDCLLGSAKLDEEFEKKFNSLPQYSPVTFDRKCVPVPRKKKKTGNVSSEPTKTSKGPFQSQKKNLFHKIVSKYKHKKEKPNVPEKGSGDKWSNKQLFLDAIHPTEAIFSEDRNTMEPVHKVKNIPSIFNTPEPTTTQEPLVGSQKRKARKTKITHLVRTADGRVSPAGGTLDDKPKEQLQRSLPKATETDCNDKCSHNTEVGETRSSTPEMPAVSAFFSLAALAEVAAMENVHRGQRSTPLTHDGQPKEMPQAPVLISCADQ

SIX2 = biological target: T2, SIX2 (Homo sapiens, UniProt Q9NPC8); assay: as above; conditions: protein: extract; label: 5' biotin (strand 1)
T2 sequence: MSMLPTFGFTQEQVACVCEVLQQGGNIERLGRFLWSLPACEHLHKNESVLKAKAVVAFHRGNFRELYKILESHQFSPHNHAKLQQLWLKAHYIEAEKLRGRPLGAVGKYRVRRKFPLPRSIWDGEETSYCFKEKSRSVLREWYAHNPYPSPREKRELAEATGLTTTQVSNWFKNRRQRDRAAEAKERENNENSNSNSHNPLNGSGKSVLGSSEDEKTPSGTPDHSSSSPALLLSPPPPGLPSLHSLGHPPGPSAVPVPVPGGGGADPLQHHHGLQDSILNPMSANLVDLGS

RREB1 = RREB1 (Homo sapiens, UniProt Q92766); assay: as above; conditions: protein: extract; label: 5' biotin (strand 1)
TFAP2A = TFAP2A (Homo sapiens, UniProt P05549); assay: as above; conditions: protein: extract; label: 5' biotin (strand 1)
VEZF1 = biological target: T3, VEZF1 (Homo sapiens, UniProt Q14119); assay: as above; conditions: protein: extract; label: 5' biotin (strand 1)
T3 sequence: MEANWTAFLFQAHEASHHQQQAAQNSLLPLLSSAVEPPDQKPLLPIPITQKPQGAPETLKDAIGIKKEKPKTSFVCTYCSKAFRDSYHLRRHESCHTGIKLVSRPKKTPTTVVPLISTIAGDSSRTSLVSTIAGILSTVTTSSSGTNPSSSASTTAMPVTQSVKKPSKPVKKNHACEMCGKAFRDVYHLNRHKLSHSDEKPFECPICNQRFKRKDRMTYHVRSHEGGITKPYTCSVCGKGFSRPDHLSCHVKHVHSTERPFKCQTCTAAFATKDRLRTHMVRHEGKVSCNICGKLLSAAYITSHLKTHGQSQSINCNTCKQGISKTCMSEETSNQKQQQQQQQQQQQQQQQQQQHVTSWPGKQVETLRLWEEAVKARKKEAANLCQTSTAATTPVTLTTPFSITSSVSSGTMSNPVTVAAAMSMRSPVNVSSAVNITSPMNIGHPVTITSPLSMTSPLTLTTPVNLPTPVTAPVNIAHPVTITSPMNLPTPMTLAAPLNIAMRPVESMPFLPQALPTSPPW

DLX3 = DLX3 (Homo sapiens, UniProt O60479); assay: as above; conditions: protein: extract; label: 5' biotin (strand 1)
ZNF787 = ZNF787 (Homo sapiens, UniProt Q6DD87); assay: as above; conditions: protein: extract; label: 5' biotin (strand 1)
ZFHX3 = ZFHX3 (Homo sapiens, UniProt Q15911); assay: as above; conditions: protein: extract; label: 5' biotin (strand 1)
GATA2 = GATA2 (Homo sapiens, UniProt P23769); assay: as above; conditions: protein: extract; label: 5' biotin (strand 1)
SP1 = SP1 (Homo sapiens, UniProt P08047); assay: as above; conditions: protein: extract; label: 5' biotin (strand 1)
KLF16 = KLF16 (Homo sapiens, UniProt Q9BXK1); assay: as above; conditions: protein: extract; label: 5' biotin (strand 1)
SMARCB1-WHD = SMARCB1-WHD (UniProt Q12824 1-113); assay: pull-down; Pull-down: 150 mM NaCl (or LiCl), 50 mM Tris pH 8, 0.25% NP-40, 1 mM TCEP, protease inhibitors, 4 C, 2 h; EMSA with lysate in same buffer, RT 15 min; FP in PBS, 25 C; conditions: protein: recombinant; label: 5' biotin; G4
PHF10-DPF = biological target: T4, PHF10-DPF (UniProt Q8WUB8 379-481); assay: as above; conditions: protein: recombinant; tags: GST; label: 5' biotin; G4
T4 sequence: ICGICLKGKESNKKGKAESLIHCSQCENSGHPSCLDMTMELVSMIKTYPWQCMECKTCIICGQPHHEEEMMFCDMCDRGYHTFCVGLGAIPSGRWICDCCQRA

Chain of RREB1 (Q92766 whole entry): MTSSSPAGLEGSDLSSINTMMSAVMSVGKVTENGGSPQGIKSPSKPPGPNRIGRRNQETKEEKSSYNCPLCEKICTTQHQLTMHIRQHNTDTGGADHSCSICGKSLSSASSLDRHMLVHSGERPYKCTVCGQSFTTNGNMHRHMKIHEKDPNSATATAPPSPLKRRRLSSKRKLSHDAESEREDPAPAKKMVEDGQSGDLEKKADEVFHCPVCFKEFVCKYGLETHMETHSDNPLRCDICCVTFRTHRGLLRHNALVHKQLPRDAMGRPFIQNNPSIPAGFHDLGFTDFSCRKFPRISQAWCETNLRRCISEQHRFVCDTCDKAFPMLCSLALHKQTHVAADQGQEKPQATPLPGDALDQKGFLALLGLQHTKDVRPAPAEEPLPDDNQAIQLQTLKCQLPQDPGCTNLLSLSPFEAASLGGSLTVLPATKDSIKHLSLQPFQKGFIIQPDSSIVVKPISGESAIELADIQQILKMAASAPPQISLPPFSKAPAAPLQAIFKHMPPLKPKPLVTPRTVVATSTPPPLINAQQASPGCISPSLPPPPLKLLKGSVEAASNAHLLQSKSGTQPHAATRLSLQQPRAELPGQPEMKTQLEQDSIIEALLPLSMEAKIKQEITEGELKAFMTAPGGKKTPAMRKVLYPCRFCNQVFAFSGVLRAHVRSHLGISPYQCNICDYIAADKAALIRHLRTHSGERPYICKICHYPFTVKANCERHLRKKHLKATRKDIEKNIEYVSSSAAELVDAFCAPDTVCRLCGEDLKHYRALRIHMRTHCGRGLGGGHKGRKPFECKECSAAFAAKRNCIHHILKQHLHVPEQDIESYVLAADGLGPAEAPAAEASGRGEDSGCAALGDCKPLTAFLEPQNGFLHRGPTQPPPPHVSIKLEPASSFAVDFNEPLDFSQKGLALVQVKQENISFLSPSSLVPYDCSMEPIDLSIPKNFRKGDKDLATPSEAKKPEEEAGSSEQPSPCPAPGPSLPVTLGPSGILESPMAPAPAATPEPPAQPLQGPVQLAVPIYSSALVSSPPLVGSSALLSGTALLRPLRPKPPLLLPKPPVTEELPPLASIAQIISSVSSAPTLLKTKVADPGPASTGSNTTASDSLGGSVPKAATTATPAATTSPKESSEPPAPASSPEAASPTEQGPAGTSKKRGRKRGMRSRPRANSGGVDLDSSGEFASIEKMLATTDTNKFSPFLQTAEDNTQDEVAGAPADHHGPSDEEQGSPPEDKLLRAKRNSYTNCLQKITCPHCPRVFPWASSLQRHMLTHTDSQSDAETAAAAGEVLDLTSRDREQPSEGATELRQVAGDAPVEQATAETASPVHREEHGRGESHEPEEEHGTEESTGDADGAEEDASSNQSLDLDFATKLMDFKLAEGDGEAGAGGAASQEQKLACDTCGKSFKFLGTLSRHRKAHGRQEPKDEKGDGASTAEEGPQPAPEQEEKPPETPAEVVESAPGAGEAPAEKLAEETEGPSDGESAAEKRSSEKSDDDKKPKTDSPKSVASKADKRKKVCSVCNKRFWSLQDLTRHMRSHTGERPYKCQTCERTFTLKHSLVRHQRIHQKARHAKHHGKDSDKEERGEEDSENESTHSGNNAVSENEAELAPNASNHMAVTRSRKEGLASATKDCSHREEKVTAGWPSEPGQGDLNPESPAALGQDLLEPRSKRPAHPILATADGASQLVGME
Chain of ZBTB7B (O15156 whole entry): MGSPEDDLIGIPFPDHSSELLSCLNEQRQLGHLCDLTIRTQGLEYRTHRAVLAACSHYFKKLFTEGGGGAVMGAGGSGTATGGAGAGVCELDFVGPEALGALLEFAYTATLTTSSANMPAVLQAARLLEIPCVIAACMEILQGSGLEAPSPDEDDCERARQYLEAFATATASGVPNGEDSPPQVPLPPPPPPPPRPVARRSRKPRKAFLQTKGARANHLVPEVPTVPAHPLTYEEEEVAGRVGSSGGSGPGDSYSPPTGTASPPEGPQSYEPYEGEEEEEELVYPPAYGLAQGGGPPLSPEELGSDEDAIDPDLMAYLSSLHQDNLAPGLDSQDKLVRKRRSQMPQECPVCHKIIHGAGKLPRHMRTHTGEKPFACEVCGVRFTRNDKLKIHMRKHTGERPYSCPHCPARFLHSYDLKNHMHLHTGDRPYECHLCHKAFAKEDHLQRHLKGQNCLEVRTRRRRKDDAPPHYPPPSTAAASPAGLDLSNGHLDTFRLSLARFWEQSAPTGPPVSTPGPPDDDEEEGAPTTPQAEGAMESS
Chain of SP1 (P08047 whole entry): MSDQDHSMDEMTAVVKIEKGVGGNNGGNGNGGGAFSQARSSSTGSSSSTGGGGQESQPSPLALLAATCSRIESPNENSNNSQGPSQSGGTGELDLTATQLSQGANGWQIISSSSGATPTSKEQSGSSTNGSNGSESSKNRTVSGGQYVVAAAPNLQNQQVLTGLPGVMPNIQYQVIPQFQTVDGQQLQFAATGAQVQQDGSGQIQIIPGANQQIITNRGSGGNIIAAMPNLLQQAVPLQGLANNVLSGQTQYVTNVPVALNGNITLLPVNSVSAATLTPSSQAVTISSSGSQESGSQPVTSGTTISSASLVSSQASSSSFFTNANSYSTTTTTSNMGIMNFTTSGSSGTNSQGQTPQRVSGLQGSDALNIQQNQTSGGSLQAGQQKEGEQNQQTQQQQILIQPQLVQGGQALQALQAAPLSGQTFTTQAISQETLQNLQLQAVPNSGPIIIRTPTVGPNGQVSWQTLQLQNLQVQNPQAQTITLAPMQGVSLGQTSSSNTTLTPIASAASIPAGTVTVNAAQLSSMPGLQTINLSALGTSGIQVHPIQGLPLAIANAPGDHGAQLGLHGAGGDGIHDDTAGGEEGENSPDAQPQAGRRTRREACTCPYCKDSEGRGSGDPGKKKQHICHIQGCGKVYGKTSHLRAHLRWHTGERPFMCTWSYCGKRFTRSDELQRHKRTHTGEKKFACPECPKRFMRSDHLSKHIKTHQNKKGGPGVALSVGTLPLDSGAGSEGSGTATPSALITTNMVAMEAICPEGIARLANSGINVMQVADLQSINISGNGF
Chain of KLF16 (Q9BXK1 whole entry): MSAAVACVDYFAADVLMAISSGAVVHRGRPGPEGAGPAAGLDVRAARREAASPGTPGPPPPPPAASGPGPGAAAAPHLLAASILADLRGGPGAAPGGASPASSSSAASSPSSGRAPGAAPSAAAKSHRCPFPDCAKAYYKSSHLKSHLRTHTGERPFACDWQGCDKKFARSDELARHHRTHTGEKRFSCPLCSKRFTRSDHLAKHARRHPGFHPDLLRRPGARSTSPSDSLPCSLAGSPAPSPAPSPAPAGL
Chain of SMARCB1-WHD (Q12824 1-113): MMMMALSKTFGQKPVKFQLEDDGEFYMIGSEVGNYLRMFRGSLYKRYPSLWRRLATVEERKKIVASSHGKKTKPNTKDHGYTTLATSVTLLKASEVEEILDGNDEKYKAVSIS
Chain of ZBTB7A (O95365 whole entry): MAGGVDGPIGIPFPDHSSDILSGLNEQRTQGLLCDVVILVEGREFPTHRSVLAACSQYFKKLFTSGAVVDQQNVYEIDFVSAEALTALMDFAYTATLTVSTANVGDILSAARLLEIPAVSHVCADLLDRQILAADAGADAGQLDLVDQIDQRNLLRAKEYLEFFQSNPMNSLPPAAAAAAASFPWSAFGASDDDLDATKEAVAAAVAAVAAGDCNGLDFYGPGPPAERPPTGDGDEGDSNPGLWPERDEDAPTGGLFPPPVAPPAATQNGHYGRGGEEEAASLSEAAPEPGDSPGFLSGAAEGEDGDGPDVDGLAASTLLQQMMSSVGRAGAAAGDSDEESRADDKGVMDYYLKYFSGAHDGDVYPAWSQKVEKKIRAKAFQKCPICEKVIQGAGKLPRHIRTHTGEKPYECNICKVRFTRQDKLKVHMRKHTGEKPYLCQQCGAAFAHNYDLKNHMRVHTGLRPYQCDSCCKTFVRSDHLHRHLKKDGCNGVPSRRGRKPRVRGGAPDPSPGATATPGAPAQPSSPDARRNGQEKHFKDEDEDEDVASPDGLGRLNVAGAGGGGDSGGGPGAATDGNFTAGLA
Chain of TGIF1 (Q15583 whole entry): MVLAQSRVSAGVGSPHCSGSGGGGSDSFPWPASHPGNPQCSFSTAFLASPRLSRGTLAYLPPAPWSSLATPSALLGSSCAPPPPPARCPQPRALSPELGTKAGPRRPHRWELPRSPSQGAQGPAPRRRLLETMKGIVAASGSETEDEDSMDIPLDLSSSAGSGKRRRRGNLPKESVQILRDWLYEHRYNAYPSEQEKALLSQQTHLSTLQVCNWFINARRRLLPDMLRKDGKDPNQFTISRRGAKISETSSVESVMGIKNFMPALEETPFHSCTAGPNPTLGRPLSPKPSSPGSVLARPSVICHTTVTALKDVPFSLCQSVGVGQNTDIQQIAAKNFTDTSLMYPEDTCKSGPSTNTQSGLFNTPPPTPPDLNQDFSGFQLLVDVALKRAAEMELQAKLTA
Chain of ZNF787 (Q6DD87 whole entry): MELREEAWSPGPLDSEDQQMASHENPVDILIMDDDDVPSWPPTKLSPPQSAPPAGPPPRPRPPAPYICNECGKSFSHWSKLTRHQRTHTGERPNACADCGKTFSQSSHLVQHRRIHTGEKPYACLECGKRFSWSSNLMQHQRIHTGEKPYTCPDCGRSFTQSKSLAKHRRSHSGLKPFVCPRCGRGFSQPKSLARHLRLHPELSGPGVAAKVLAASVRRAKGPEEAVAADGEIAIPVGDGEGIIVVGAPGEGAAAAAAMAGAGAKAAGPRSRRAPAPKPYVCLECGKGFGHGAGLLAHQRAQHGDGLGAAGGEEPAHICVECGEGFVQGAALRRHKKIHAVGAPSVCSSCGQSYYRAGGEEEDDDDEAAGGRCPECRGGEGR

B1: E-box (dsDNA)
DNA 1: GGAAGCAGACCACGTGGTCTGCTTCC
DNA 2: GGAAGCAGACCACGTGGTCTGCTTCC
- apparent K (half saturation) (ZBTB7A): 404 nM
- apparent K (half saturation) (ZBTB7B): 405 nM

B2: AP-1 (dsDNA)
DNA 1: AGTCGGCTAGCTGACTCAGGATGTCC
DNA 2: GGACATCCTGAGTCAGCTAGCCGACT
- apparent K (half saturation) (TGIF1): 322 nM
- apparent K (half saturation) (ELF2): 205 nM
- apparent K (half saturation) (BBX): 308 nM
- apparent K (half saturation) (SIX2): 59.9 nM
- apparent K (half saturation) (RREB1): 317 nM
- apparent K (half saturation) (TFAP2A): 363 nM
- apparent K (half saturation) (VEZF1): 255 nM

B3: NF-Y (dsDNA)
DNA 1: ATTGACCAATCAGAGGTAGGATGAT
DNA 2: ATCATCCTACCTCTGATTGGTCAAT
- apparent K (half saturation) (DLX3): 52.9 nM
- apparent K (half saturation) (ZNF787): 394 nM
- apparent K (half saturation) (ZFHX3): 56.9 nM
- apparent K (half saturation) (GATA2): 126 nM
- apparent K (half saturation) (RREB1): 283 nM
- apparent K (half saturation) (VEZF1): 249 nM
- apparent K (half saturation) (SP1): 185 nM
- apparent K (half saturation) (KLF16): 200 nM

B4: mycG4 (Pu27) (structured_DNA)
DNA: TGGGGAGGGTGGGGAGGGTGGGGAAGG
- binding result (SMARCB1-WHD): binds
- binding result (PHF10-DPF): no binding
